Experimental data published in patent publication CN113444176A (WUHAN RENFU INNOVATIVE DRUG R&D CENTER CO LTD; HUMANWELL …, dated 2021).
Like-named read-outs stand apart in the source and are kept apart here.

Assays:
[1] = target: T1, 重组人NGF蛋白 (recombinant human nerve growth factor) (human, UniProt P01138 122-241); assay: SPR, Biacore 8K, NGF coupled to CM5 chip, antibody as analyte, 1:1 binding model
T1 construct: also called 重组NGF蛋白; 重组NGF抗原

[2] = target: T2, 重组NT3 (神经营养因子3) (Rattus norvegicus (Rat), UniProt P18280 140-258); assay: SPR, Biacore 8K, CM5 chip, antibody as analyte
T2 sequence: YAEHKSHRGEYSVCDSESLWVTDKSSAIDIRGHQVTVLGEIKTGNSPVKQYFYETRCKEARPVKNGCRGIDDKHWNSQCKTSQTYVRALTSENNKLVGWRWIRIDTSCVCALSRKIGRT

[3] = target: T3, 重组NT4 (神经营养因子4) (Homo sapiens (Human), UniProt P34130 81-210); assay: SPR, Biacore 8K, CM5 chip, antibody as analyte
T3 sequence: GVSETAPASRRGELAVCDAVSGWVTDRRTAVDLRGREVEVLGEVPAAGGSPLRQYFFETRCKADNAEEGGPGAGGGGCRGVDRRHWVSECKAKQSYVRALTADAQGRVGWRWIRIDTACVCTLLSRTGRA

[4] = target: T4, 重组BDNF (脑源性神经营养因子) (Helarctos malayanus (Malayan sun bear) …, UniProt O18753 129-247); assay: competition ELISA: coated NGF, antibody preincubated with recombinant BDNF
T4 sequence: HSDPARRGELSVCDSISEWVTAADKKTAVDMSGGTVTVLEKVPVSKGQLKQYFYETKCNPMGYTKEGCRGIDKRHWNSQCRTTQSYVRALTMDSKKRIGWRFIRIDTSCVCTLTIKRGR

[5] = target: T1, 重组人NGF蛋白 (recombinant human nerve …); assay: SPR, Biacore 8K, NGF coupled to CM5 chip, antibody as analyte, 1:1 binding model; remark: listed apart in the source
[6] = target: T4, 重组BDNF (脑源性神经营养因子); assay: SPR, Biacore 8K, CM5 chip, antibody as analyte

T1 sequence (P01138 122-241 limits assumed): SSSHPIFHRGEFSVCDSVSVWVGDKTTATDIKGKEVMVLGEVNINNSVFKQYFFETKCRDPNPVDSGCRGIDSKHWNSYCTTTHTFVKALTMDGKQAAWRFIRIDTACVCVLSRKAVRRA

B1: 鼠源抗体G9 (anti-NGF mouse monoclonal antibody G9) (antibody, mouse IgG1, kappa, V domains shown)
VH: EVQLQQSGTVLARPGTSVRMSCKASGYTFTSYWMHWIKQRPGQGLEWIGAIYPGNSDTSYTQKFKGKAKLTAVTSTSTAYMELSSLTNEDSAVYYCTTPYGYDEDWYFNVWGAGTTVTVPS
VL: NIVMTQSPKSMSMSVGERVTLSCKASENVGTYVSWYQQKPEQPPKLLIYGASNRYTGVPDRFTGCGSATDFTLTISSVQAEDLADYHCGQSYSYPLTFGAGTKLELKR
notes: Hybridoma antibody; also called 杂交瘤单抗G9
**Q.** With B1 as the binder, how does the Kd [1] read?
**A.** 1.29 nM

**Q.** What about the koff [1] of the same binder?
**A.** 0.000283 s⁻¹

**Q.** And the kon [1]?
**A.** 219000 M⁻¹ s⁻¹

B2: 人源化抗NGF抗体Ab01 (antibody, human IgG4 S228P, kappa, V domains shown)
VH: EVQLVESGGGLVKPGGSLRLSCAASGFTFSRYAMSWVRQAPGKGLEWVSTISSGGSYTYYPDSVKGRFTISRDNAKNSLYLQMNSLRAEDTAVYYCARHGEFYGTTFDVHYFDYWGQGTLVTVSS
VL: AIQLTQSPSSLSASVGDRVTITCRASESVDSYGNSFMHWYQQKPGKAPKLLIYLASNLESGVPSRFSGSGSGTDFTLTISSLQPEDFATYYCQQNNEDPLTFGGGTKVEIKR
notes: Humanised from F3; human IgG4 (S228P) heavy constant region and human kappa constant region; expressed in CHO cells
**Q.** Which results are given for B2?
**A.** binding result [2]: no binding; binding result [3]: no binding; binding result [4]: no binding; Kd [5]: 0.151 nM; koff [5]: 4.35e-05 s⁻¹; kon [5]: 287000 M⁻¹ s⁻¹

B3: 人源化抗NGF抗体Ab02 (antibody, human IgG4 S228P, kappa, V domains shown)
VH: EVQLVESGGGLVQPGGSLRLSCAASGFTFSRYAMSWVRQAPGKGLVWVSTISSGGSYTYYPDSVKGRFTISRDNAKNTLYLQMNSLRAEDTAVYYCARHGEFYGTTFDVHYFDYWGQGTLVTVSS
VL: EIVLTQSPATLSLSPGERATLSCRASESVDSYGNSFMHWYQQKPGQAPRLLIYLASNLESGIPDRFSGSGSGTDFTLTISRLEPEDFAVYYCQQNNEDPLTFGGGTKVEIKR
notes: as for B2
**Q.** Does B3 bind [6]?
**A.** no binding

**Q.** Does B3 bind [2]?
**A.** no binding

**Q.** Does B3 bind [3]?
**A.** no binding

**Q.** And the Kd [5]?
**A.** 0.137 nM

**Q.** What about the koff [5] of the same binder?
**A.** 4.02e-05 s⁻¹

**Q.** What about the kon [5] of the same binder?
**A.** 294000 M⁻¹ s⁻¹

B4: 人源化抗NGF抗体Ab03 (antibody, human IgG4 S228P, kappa, V domains shown)
VH: EVQLVESGGGLVQPGGSLRLSCAASGFTFSRYAMSWVRQAPGKGLEWVSTISSGGSYTYYPDSVKGRFTISRDNAKNSLYLQMNSLRAEDTAVYYCARHGEFYGTTFDVHYFDYWGQGTLVTVSS
VL: EIVLTQSPATLSLSPGERATLSCRASESVDSYGNSFMHWYQQKPGQAPRLLIYLASNLESGIPARFSGSGSGTDFTLTISSLEPEDFAVYYCQQNNEDPLTFGGGTKVEIKR
notes: as for B2
**Q.** Does B4 bind [6]?
**A.** no binding

**Q.** Does B4 bind [2]?
**A.** no binding

**Q.** Does B4 bind [3]?
**A.** no binding

**Q.** And the Kd [5]?
**A.** 0.0918 nM

**Q.** And the koff [5]?
**A.** 2.78e-05 s⁻¹

**Q.** And the kon [5]?
**A.** 303000 M⁻¹ s⁻¹

B5: 鼠源抗体F3 (anti-NGF mouse monoclonal antibody F3) (antibody, mouse IgG1, kappa, V domains shown)
VH: EVMLVESGGDLVKPGGSLKLSCAASGFTFSRYAMSWVRQTPEKRLEWVATISSGGSYTYYPDSVKGRFTISRDNAKNTLYLQMSSLRSEDTAMFYCARHGEFYGTTFDVHYFDYWGQGTTLTVSS
VL: YIVLTQSPASLAVSLGQRATISCRASESVDSYGNSFMHWYQQKPGQPPKLLIYLASNLESGVPARFSGSGSRTDFTLTIDPVEADDAATYYCQQNNEDPLTFGTGTKLELKR
notes: Hybridoma antibody; also called 杂交瘤单抗F3
**Q.** B5 was tested. Which Kd [1] did it give?
**A.** 0.335 nM

**Q.** And the koff [1]?
**A.** 0.000121 s⁻¹

**Q.** And the kon [1]?
**A.** 363000 M⁻¹ s⁻¹
